Laboratory results as given in patent US8168595B2, “Antithrombotic dual inhibitors comprising a biotin residue” (priority 2004, dated 2012).
Structures can show the parent of a compound that is named as a salt. Where two headings read alike, the source gives them in different places.

Experiments:
[1] = Pharmacokinetics - neutralization experiment with avidin in rats; type: in vivo; details: rat, 100 nmol/kg s.c.
Procedure: 3.2 Pharmacokinetics—Neutralization Experiment:
Rats were treated with compound III of this invention, or Org 42675 at a dose of 100 nmol/kg s.c. At t=2 h, a blood sample was taken and 10 mg/kg of Avidin (from egg white, Sigma) was administered i.v. to the rats treated with compound III of this invention or Org 42675. Blood was sampled at 0.17, 0.5, 1, 2, 3, and 7 hours subsequently. The blood was treated as described in the pharmacokinetic experiment and the concentration of the samples was determined by measuring the (residual) anti-Xa or anti-IIa activity. (see FIG. 2)

[2] = experimental thrombosis; cited from earlier work
[3] = Pharmacokinetics after s.c. administration in rats; type: in vivo, male Wistar rats; details: rat, 100 nmol/kg s.c.; for AUC(0-inf) / MRT / Tmax / half-life / Cmax: male, Wistar, sc; for AUC(0-inf) / MRT / Tmax / half-life: plasma, 100 nmol/kg; for AUC(0-inf) / MRT / Tmax / half-life / Cmax / Cl / Vz: mean ± s.e.m.; for AUC(0-inf) / MRT / Tmax / Cmax / Cl / Vz: n = 3; for half-life: n = 3, read-out: T½ eli (converted); for pharmacokinetic behavior in rats, compound III compared with Org 42675: within the variability of the experiment
Procedure: 3.1 Pharmacokinetics The pharmacokinetic properties of Org 42675 and of compound III of this invention were studied in male Wistar rats of 300-400 gr. The rats were anaesthetized by inhalation of a mixture of O2/N2O/isoflurane, after which the right jugular vein was cannulated. The next day rats were treated s.c. with doses of 100 nmol/kg. After s.c. administration, blood was sampled at several time intervals. Then the blood was centrifuged after which the plasma was siphoned off and stored at −20° C. until use. The concentration of the tested compound was measured amidolytically using S-2222 or S-2238 as substrates (Chromogenix, Chromogenics Ltd, Molndal, Sweden) to determine the anti-Xa or anti-IIa activity, respectively. Both procedures were based on the methods of Teien and Lie (Teien A N, Lie M. Evaluation of an amidolytic heparin assay method increased sensitivity by adding purified antithrombin III. Thromb. Res. 1977, 10: 399-410). The concentrations in the obtained plasma samples were determined against a calibration curve which was made of the stock solution of the tested compound itself. The concentration in the samples was expressed in nmol/mL and the kinetic parameters were calculated with the noncompartment model of WinNonlin. (see FIG. 1)

[4] = in vivo; cited from earlier work
factor IIa = factor IIa (Homo sapiens, UniProt P00734); experiment: In vitro amidolytic anti-factor IIa activity in human plasma (S2238); type: biochemical; details: human plasma pH 7.4, substrate S2238; read-out: Anti-IIa Human plasma pH 7.4 IC-50
Procedure: (§1) In Vitro Test for Determination of the Anti-Factor Xa and Factor IIa Activity in Human Plasma The anti-factor Xa and IIa activity of the tested compounds in human plasma were measured amidolytically using S2222 or S2238 (Chromogenix, Chromogenics Ltd, Molndal, Sweden) as substrates, respectively. The protcols were based on the method described by Teien and Lie. (Teien A N, Lie M. Evaluation of an amidolytic heparin assay method increased sensitivity by adding purified antithrombin III. Thromb. Res. 1977, 10: 399-410). Both activities are expressed in IC-50 (Mol/L).

factor Xa = experiment: In vitro amidolytic anti-factor Xa activity in human plasma (S2222); type: biochemical; details: human plasma pH 7.4, substrate S2222; read-out: Anti-Xa Human plasma pH 7.4 IC-50
Procedure: as §1

[5] = plasma level by anti_Xa activity
[6] = plasma level by anti-IIa activity

For `COc1cc(C)c(S(=O)(=O)N[C@@H](CC(=O)NCCCC(=O)NCCOCCOCCOCCO[C@H]2[C@H](OC)[C@@H](OC)[C@@H](O[C@H]3[C@H](OC)[C@@H](OC)[C@H](O[C@H]4[C@H](OS(=O)(=O)O)[C@@H](OS(=O)(=O)O)[C@@H](O[C@H]5[C@H](OC)[C@@H](OC)[C@H](O[C@H]6[C@H](OC)[C@@H](OS(=O)(=O)O)[C@@H](OC)O[C@@H]6COS(=O)(=O)O)O[C@H]5C(=O)O)O[C@@H]4COS(=O)(=O)O)O[C@@H]3C(=O)O)O[C@@H]2COS(=O)(=O)O)C(=O)N[C@H](Cc2ccc(C(=N)N)cc2)C(=O)N2CCCCC2)c(C)c1C` [Org 42675, reference compound], the AUC(0-inf) ([1]; Wistar, plasma, subcutaneous, avidin 10 mg/kg i.v. at t = 2 h, calculated from T = 2 h, anti_Xa activity, mean ± s.e.m., n = 3) is given as 4.8 ± 0.6 µM·h, the “pharmacokinetic behavior on addition of avidin” value ([1]; avidin 10 mg/kg i.v. at t = 2 h) is given as “not affected” and the “efficacy in comparison with argatroban, heparin and fondaparinux” value [2] is given as “improved efficacy”. For the same compound, the AUC(0-inf) [3, 5] was 5.3 ± 0.3 µM·h, the MRT [3, 5] was 4.6 ± 0.2 h and the Tmax [3, 5] was 2.3 ± 0.2 h. For the same compound, the half-life [3, 5] was 2.7 ± 0.2 h, the Cmax [3, 5] was 1000 ± 20 nM and the Cl [3, 5] was 0.318 ± 0.0183 mL/min/kg. The Vz [3, 5] was 0.074 ± 0.0045 L/kg, the “pharmacokinetic behavior in rats, compound III compared with Org 42675” value [3] was “the same pharmacokinetic behavior” and the “prolonged half-life in comparison to the corresponding non-conjugated direct thrombin inhibitor derived from NAPAP” value [4] was 10 fold. The IC50 (factor IIa) was 17.8 nM and the IC50 (factor Xa) was 0.767 nM.
In the case of `COc1cc(C)c(S(=O)(=O)N[C@@H](CC(=O)NCCCC(=O)N[C@@H](CCCCNC(=O)CCCC[C@@H]2SC[C@@H]3NC(=O)N[C@@H]32)C(=O)NCCOCCOCCOCCO[C@H]2[C@H](OC)[C@@H](OC)[C@@H](O[C@H]3[C@H](OC)[C@@H](OC)[C@H](O[C@H]4[C@H](OS(=O)(=O)O)[C@@H](OS(=O)(=O)O)[C@@H](O[C@H]5[C@H](OC)[C@@H](OC)[C@H](O[C@H]6[C@H](OC)[C@@H](OS(=O)(=O)O)[C@@H](OC)O[C@@H]6COS(=O)(=O)O)O[C@H]5C(=O)O)O[C@@H]4COS(=O)(=O)O)O[C@@H]3C(=O)O)O[C@@H]2COS(=O)(=O)O)C(=O)N[C@H](Cc2ccc(C(=N)N)cc2)C(=O)N2CCCCC2)c(C)c1C` [Compound III, sodium salt], the “neutralization of antithrombotic activity ((residual) anti-Xa and anti-IIa activity) by avidin” value ([1]; avidin 10 mg/kg i.v.) is reported as “can be neutralized”, the AUC(0-inf) [3, 6] is reported as 5 ± 0.6 µM·h and the MRT [3, 6] is reported as 4.3 ± 0.3 h. The Tmax [3, 6] was 1.5 ± 0.5 h, the half-life [3, 6] was 2.7 ± 0.5 h and the AUC(0-inf) [3, 5] was 7.2 ± 0.2 µM·h. The MRT [3, 5] was 5.9 ± 0.5 h, the Tmax [3, 5] was 1.2 ± 0.4 h and the half-life [3, 5] was 3.9 ± 0.3 h. For the same compound, the Cmax [3, 5] was 1100 ± 100 nM, the Cl [3, 6] was 0.343 ± 0.04 mL/min/kg and the Vz [3, 6] was 0.078 ± 0.0042 L/kg. For the same compound, the Cl [3, 5] was 0.232 ± 0.0067 mL/min/kg, the Vz [3, 5] was 0.078 ± 0.0046 L/kg and the “pharmacokinetic behavior in rats, compound III compared with Org 42675” value [3] was “the same pharmacokinetic behavior”. The IC50 (factor IIa) was 16.2 nM and the IC50 (factor Xa) was 0.843 nM.
